Source: paper PMC7679967 (Protein Science : A Publication of the Protein Society, 2020)

Biological target: human Hsp90β (HSP90AB1) (human, UniProt P08238 1-724)
Experiment: ITC

human Hsp90β (HSP90AB1), sequence (P08238 whole entry): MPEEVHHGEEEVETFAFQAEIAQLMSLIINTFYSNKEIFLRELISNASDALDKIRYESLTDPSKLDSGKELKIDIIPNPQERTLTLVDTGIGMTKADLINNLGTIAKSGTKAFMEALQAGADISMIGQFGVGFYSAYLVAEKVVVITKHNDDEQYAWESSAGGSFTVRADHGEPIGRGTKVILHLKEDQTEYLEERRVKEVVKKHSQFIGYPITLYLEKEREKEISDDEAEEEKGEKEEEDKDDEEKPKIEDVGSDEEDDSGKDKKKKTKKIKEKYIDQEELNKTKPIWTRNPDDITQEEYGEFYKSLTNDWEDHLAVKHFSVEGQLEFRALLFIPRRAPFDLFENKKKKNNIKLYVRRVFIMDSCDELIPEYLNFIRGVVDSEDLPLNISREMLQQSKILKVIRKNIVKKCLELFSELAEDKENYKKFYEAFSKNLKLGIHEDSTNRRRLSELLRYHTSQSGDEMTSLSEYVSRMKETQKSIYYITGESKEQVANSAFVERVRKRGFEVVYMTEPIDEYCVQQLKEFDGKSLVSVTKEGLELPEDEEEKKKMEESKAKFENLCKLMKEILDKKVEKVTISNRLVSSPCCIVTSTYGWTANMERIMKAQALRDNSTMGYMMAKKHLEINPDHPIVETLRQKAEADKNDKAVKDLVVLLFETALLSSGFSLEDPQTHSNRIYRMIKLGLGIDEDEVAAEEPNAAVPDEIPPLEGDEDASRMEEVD

- Kd: 3.59 µM
- stoichiometry N: 0.5
B1: Hop112a (Hop aa. 1-352; TPR1, DP1 and TPR2A) (domain or fragment)
chain: not shown
